# Measured values taken from patent publication US20250277048A1 (Regeneron, published 2025).
# B1: REGN16431 (bispecific antibody, human IgG4 S228P, kappa)
# heavy 1: QLQLQESGPGLVRPSETLSLTCSVSGASMNTNNYYWGWIRQPPGKGLEWIGSGYYNGNTYYNPSLKSRVTISVDTSKNQFSLKLNSVTAADTAVYYCARQTPPRIIGSPNIWGQGTMVTVSSASTKGPSVFPLAPCSRSTSESTAALGCLVKDYFPEPVTVSWNSGALTSGVHTFPAVLQSSGLYSLSSVVTVPSSSLGTKTYTCNVDHKPSNTKVDKRVESKYGPPCPPCPAPPVAGPSVFLFPPKPKDTLMISRTPEVTCVVVDVSQEDPEVQFNWYVDGVEVHNAKTKPREEQFNSTYRVVSVLTVLHQDWLNGKEYKCKVSNKGLPSSIEKTISKAKGQPREPQVYTLPPSQEEMTKNQVSLTCLVKGFYPSDIAVEWESNGQPENNYKTTPPVLDSDGSFFLYSRLTVDKSRWQEGNVFSCSVMHEALHNHYTQKSLSLSLGK
# heavy 2: EVQLVESGGGLVQPGGSLRLSCAASGFTFGSYGMAWVRQAPGKGLEWVSAISGSGDYTNYADSVKRRFTISRDNSKNTLYLQMSSLRAEDTAVYYCAKEKTGTTGYLYSGMDVWGQGTTVTVSSASTKGPSVFPLAPCSRSTSESTAALGCLVKDYFPEPVTVSWNSGALTSGVHTFPAVLQSSGLYSLSSVVTVPSSSLGTKTYTCNVDHKPSNTKVDKRVESKYGPPCPPCPAPPVAGPSVFLFPPKPKDTLMISRTPEVTCVVVDVSQEDPEVQFNWYVDGVEVHNAKTKPREEQFNSTYRVVSVLTVLHQDWLNGKEYKCKVSNKGLPSSIEKTISKAKGQPREPQVYTLPPSQEEMTKNQVSLTCLVKGFYPSDIAVEWESNGQPENNYKTTPPVLDSDGSFFLYSRLTVDKSRWQEGNVFSCSVMHEALHNRFTQKSLSLSPGK
# light: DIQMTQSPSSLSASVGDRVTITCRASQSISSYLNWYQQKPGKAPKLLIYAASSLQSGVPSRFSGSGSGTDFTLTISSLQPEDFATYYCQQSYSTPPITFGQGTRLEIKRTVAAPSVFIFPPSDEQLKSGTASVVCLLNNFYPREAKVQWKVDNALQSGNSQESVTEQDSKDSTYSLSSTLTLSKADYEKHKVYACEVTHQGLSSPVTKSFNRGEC
# notes: D1 arm from 21519P2, D2 arm from 21520P2, common light chain; also called CD40xCD40 (21519 x 21520)
# B2: REGN16432 (bispecific antibody, human IgG4 S228P, kappa)
# heavy 1: EVQLVESGGGLVQPGGSLRLSCAASGFTFSSYAMNWVRQAPGKGLEWVSIISGTIGKTYYADSVKGRFTISRDNSKNTLYLQMNSLRGEDTAVYYCAKDTERDITGSPFDYWGQGTLVTVSSASTKGPSVFPLAPCSRSTSESTAALGCLVKDYFPEPVTVSWNSGALTSGVHTFPAVLQSSGLYSLSSVVTVPSSSLGTKTYTCNVDHKPSNTKVDKRVESKYGPPCPPCPAPPVAGPSVFLFPPKPKDTLMISRTPEVTCVVVDVSQEDPEVQFNWYVDGVEVHNAKTKPREEQFNSTYRVVSVLTVLHQDWLNGKEYKCKVSNKGLPSSIEKTISKAKGQPREPQVYTLPPSQEEMTKNQVSLTCLVKGFYPSDIAVEWESNGQPENNYKTTPPVLDSDGSFFLYSRLTVDKSRWQEGNVFSCSVMHEALHNHYTQKSLSLSLGK
# heavy 2: B1 heavy 2
# light: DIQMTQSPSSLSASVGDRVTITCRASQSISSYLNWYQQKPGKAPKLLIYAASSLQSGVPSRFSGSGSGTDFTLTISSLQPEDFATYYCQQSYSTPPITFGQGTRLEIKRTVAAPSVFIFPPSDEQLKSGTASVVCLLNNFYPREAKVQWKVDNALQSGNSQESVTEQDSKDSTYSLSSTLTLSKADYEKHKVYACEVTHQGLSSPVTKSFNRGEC
# notes: D1 arm from 30027P2, D2 arm from 21520P2, common light chain; also called CD40xCD40 (30027 x 21520)
# B3: 21519P2 (antibody, human IgG4 S228P, kappa, V domains shown)
# VH: QLQLQESGPGLVRPSETLSLTCSVSGASMNTNNYYWGWIRQPPGKGLEWIGSGYYNGNTYYNPSLKSRVTISVDTSKNQFSLKLNSVTAADTAVYYCARQTPPRIIGSPNIWGQGTMVTVSS
# VL: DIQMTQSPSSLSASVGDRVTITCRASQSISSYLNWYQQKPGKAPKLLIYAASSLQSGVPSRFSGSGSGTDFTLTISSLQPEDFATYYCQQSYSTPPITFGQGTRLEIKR
# notes: parental bivalent anti-CD40 mAb; common light chain; also called H4sH21519P2
# B4: 21520P2 (antibody, human IgG4 S228P, kappa, V domains shown)
# VH: EVQLVESGGGLVQPGGSLRLSCAASGFTFGSYGMAWVRQAPGKGLEWVSAISGSGDYTNYADSVKRRFTISRDNSKNTLYLQMSSLRAEDTAVYYCAKEKTGTTGYLYSGMDVWGQGTTVTVSS
# VL: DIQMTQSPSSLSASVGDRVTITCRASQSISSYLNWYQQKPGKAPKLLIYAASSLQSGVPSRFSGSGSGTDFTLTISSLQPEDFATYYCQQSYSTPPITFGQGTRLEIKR
# notes: parental bivalent anti-CD40 mAb; common light chain; also called H4sH21520P2
# B5: 30027P2 (antibody, human IgG4 S228P, kappa, V domains shown)
# VH: EVQLVESGGGLVQPGGSLRLSCAASGFTFSSYAMNWVRQAPGKGLEWVSIISGTIGKTYYADSVKGRFTISRDNSKNTLYLQMNSLRGEDTAVYYCAKDTERDITGSPFDYWGQGTLVTVSS
# VL: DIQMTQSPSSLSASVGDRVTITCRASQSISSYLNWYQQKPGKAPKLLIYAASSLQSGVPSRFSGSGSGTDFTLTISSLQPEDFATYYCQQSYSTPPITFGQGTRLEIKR
# notes: parental bivalent anti-CD40 mAb; common light chain; also called H4sH30027P2
# Key:
# [1] = molecular target: T1, human CD40 extracellular domain expressed with a C-terminal myc-myc-hexahistidine tag (human); assay: SPR Biacore 4000, mAb captured, 25C
# T1 construct: also called hCD40-MMH; hCD40-mmH
# Procedure: (§1) The equilibrium dissociation constants (KD) for anti-CD40 bivalent and bispecific monoclonal antibodies (mAbs) were determined using a real-time surface plasmon resonance (SPR)-based Biacore 4000 biosensor. All binding studies were performed in 10 mM HEPES, 150 mM NaCl, 3 mM EDTA, and 0.05% v/v surfactant Tween-20, pH 7.4 (HBS-ET) running buffer at 25° C. and 37° C. The Biacore CM5 sensor surface was first derivatized by amine coupling with a monoclonal mouse anti-human Fc antibody (REGN2567) to capture anti-CD40 bivalent parental and anti-CD40×CD40 bispecific antibodies. Different concentrations of CD40 reagents, human CD40 extracellular domain expressed with a C-terminal myc-myc-hexahistidine tag (SEQ ID NO: 1114) (“hCD40-MMH”; REGN3094; SEQ ID NO: 53), monkey CD40 extracellular domain expressed with a C-terminal myc-myc-hexahistidine tag (SEQ ID NO: 1114) (“mfCD40-MMH”; REGN3097; SEQ ID NO: 54), and mouse CD40 extracellular domain expressed with a C-terminal myc-myc-hexahistidine tag (SEQ ID NO: 1114) (“mCD40-MMH”; REGN3098; SEQ ID NO: 55), at concentrations ranging from 3.7 nM to 100 nM or 3.3 nM to 90 nM in a series of 3-fold dilutions prepared in HBS-ET running buffer were injected at a flow rate of 30 μL/min for 4 minutes or 50 μL/min for 5 minutes. The dissociation of different CD40 reagents bound to anti-CD40 bivalent parental and anti-CD40×CD40 bispecific antibodies was monitored for 10 minutes in HBS-ET running buffer. At the end of each cycle, the anti-CD40 bivalent parental and anti-CD40×CD40 bispecific antibodies capture surface was regenerated using a 12 sec injection of 20 mM H₃PO₄.
# (§2) The association rate (ka) and dissociation rate (kd) were determined by fitting the real-time binding sensorgrams to a 1:1 binding model with mass transport limitation using Scrubber 2.0c curve-fitting software. Binding dissociation equilibrium constant (KD) and dissociative half-life (t_{1/2}) were calculated from the kinetic rates as: KD(M)=kd/kₐ, and t_{1/2} (min)=[ln(2)/(60*kd)].
# [2] = molecular target: T2, human CD40 (hCD40) expressed on cells (human, UniProt P25942 21-277); assay: cell-based or functional assay
# T2 sequence (P25942 21-277): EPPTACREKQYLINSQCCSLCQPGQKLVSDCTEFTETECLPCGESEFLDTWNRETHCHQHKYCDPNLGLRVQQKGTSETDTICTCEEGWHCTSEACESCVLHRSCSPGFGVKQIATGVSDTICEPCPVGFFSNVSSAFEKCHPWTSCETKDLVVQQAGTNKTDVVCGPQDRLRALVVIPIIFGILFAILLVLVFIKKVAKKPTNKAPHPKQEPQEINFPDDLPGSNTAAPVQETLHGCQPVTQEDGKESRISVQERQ
# [3] = molecular target: T2, human CD40 (hCD40) expressed on cells; assay: flow cytometry, HEK293/D9/hCD40 cells
# Procedure: Cells were washed with 2% FBS (w/v) in 1×PBS (flow cytometry staining buffer) by centrifugation with benchtop Centrifuge 5810R (Eppendorf®, Hamburg, Germany). Cells were incubated for 30 minutes at 4° C. with serial dilutions of following antibodies ranging from 1.7 pM to 100 nM in flow cytometry staining buffer (1) anti-CD40×CD40 bispecific antibodies, or (2) parental anti-CD40 antibodies (bivalent antibodies comprising 2 fragment antigen-binding [Fab] arms identical to one of the two anti-CD40 Fab of bispecific anti-CD40×CD40 antibodies), or (3) anti-CD40×Irrelevant antibodies (bivalent antibodies that incorporate one Fab arm identical to one of anti-CD40 Fab of anti-CD40×CD40 antibodies and another Fab arm specific to an irrelevant antigen, i.e. birch pollen main allergen Bet v1), or (4) human IgG4 isotype control antibodies with Fc mutation. After washing, cell bound antibodies were detected with 2.5 μg/ml Allophycocyanin (APC)-conjugated goat anti-human IgG antibody specific for the Fcγ fragment (Jackson Immunoresearch, West Grove, PA) for 30 minutes at 4° C. Cells were washed and subsequently fixed with 50% solution of Cytofix™ Fixation Buffer (BD, Franklin Lakes, NJ) in flow cytometry staining buffer for 20 minutes at room temperature. Cells were washed and resuspended in flow cytometry staining buffer and stored at 4° C. for downstream flow cytometry analysis.
# Acquisition of fluorescence signals were recorded on the ZE5 Cell Analyzer (Bio-Rad, Hercules, CA) according to the manufacturer's recommended procedure and flow cytometry data analysis was performed using the open-source R packages flowCore, flowStats, flowDensity, ggCyto, and flowAI. Multiplexed samples were deconvoluted and individual cell populations were identified based on their unique CellTrace™ fluorescence signature. APC Median Fluorescence intensity (MFI) was recorded to indicate the binding intensity of each antibody over a range of concentrations. Antibodies with MFI greater than 1500 at the highest tested concentration (100 nM) were classified as specific binders. In addition, direct binding signals (APC MFI) were analyzed as a function of the antibody concentration and data were fitted with a sigmoidal (four-parameter logistic) dose-response model using GraphPad Prism™ software.
# [4] = molecular target: T3, mouse CD40 extracellular domain expressed with a C-terminal myc-myc-hexahistidine tag (mouse); assay: SPR Biacore 4000, mAb captured, 25C
# T3 construct: also called mCD40-MMH; REGN3098
# T3 chain: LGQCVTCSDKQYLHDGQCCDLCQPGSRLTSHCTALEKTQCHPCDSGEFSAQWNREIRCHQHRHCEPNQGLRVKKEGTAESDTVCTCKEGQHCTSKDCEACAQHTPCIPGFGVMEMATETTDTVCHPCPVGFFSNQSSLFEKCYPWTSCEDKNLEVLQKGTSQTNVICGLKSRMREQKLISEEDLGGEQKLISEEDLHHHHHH
# Procedure: as §1, §2
# [5] = molecular target: T4, monkey CD40 extracellular domain expressed with a C-terminal myc-myc-hexahistidine tag (monkey); assay: SPR Biacore 4000, mAb captured, 25C
# T4 construct: also called mfCD40-MMH; REGN3097
# T4 chain: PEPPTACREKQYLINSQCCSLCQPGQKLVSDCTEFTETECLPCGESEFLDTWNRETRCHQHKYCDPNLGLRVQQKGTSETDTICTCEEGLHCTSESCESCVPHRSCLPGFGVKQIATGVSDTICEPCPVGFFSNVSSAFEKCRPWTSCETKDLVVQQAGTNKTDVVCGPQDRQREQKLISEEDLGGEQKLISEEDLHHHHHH
# Procedure: as §1, §2
Binder,100 nM Ag Bound [1] [RU],Kd [1] [nM],koff [1] [s⁻¹],kon [1] [M⁻¹ s⁻¹],t1/2 [1] [min],"IC50, 500 pM hCD40L, Ramos NFkB-luc [2] [M]","Max % activation, no ligand, Ramos NFkB-luc [2] [%]","Max % inhibition, 500 pM hCD40L, Ramos NFkB-luc [2] [%]",EC50 [3] [nM],MFI at 100 nM [3] [MFI],100 nM Ag Bound [4] [RU],binding result [4],100 nM Ag Bound [5] [RU],Kd [5] [nM],koff [5] [s⁻¹],kon [5] [M⁻¹ s⁻¹],t1/2 [5] [min],"EC50, no ligand, Ramos NFkB-luc [2] [nM]","IC50, 500 pM hCD40L, Ramos NFkB-luc (three highest concentrations excluded, hook effect) [2] [M]","EC50 (potentiation), 500 pM hCD40L, Ramos NFkB-luc [2] [M]"
B1,61.2,0.101,0.000149,1.47e+06,77.5,8.54e-11,6,90,1.9,29500,–,–,–,–,–,–,–,–,–,–
B2,56.6,0.163,0.000125,769000,92.3,4.92e-11,4,94,1.5,30300,–,–,–,–,–,–,–,–,–,–
B3,99,8.82,0.00339,–,3.4,3.09e-11,13,88,1.3,20200,0.4,no binding (tested: 100 nM),10.3,205,0.181,886000,0.1,–,–,–
B4,76.6,25.1,0.0223,885000,0.5,–,49,63,0.82,20700,-0.5,–,10.1,67.7,0.203,3e+06,0.1,> 10,8.06e-11,–
B5,62,1.83,0.000998,546000,11.6,–,8,-130,0.72,20900,0.2,no binding (tested: 100 nM),63.1,0.901,0.00102,1.14e+06,11.3,–,–,8.14e-12
